Several values for one entry are separate records, joined by “and”; a condition that tells them apart may be missing. Equal entries are not always repeated.

From paper PMC3377065 (EMBO Molecular Medicine, 2011) come the findings set out here.

B1: human CMG2 C230A, V5-tagged (receptor)
chain: not shown
B2: human CMG2 C230A–C315A double mutant, V5-tagged (receptor)
chain: not shown
B3: human CMG2 C279A, V5-tagged (receptor)
chain: not shown
B4: human CMG2 C39A, V5-tagged (receptor)
chain: not shown
B5: human CMG2 C255A, V5-tagged (receptor)
chain: not shown
B6: human CMG2 C218A, V5-tagged (receptor)
chain: not shown
B7: human CMG2 C315A, V5-tagged (receptor)
chain: not shown

The data set concerns the molecule itself. Put plainly: non-reducing SDS-PAGE and Western blot.
Consider B1, for which the “stoichiometry N” value is 3 and 4.

Regarding B2, the “stoichiometry N” value stood at 2.

As to B3, the “stoichiometry N” value was 3 and 4.

For B4, the “stoichiometry N” value was 2.

With B5, the “stoichiometry N” value is 3 and 4.

Take B6: the “stoichiometry N” value was 2.

On to B7, for which the “stoichiometry N” value was 3 and 4.
